# Laboratory results: publication PMC4137731, “C-Terminal Domain Swapping of SSB Changes the Size of the ssDNA Binding Site”
# B1: dT15 (ssDNA)
# DNA: TTTTTTTTTTTTTTT
# B2: dT20 (ssDNA)
# DNA: TTTTTTTTTTTTTTTTTTTT
# B3: dT40 (ssDNA)
# DNA: TTTTTTTTTTTTTTTTTTTTTTTTTTTTTTTTTTTTTTTT
# B4: dT60 (ssDNA)
# DNA: TTTTTTTTTTTTTTTTTTTTTTTTTTTTTTTTTTTTTTTTTTTTTTTTTTTTTTTTTTTT
# B5: dT45 (ssDNA)
# DNA: TTTTTTTTTTTTTTTTTTTTTTTTTTTTTTTTTTTTTTTTTTTTT
# B6: dT25 (ssDNA)
# DNA: TTTTTTTTTTTTTTTTTTTTTTTTT
# B7: dT55 (ssDNA)
# DNA: TTTTTTTTTTTTTTTTTTTTTTTTTTTTTTTTTTTTTTTTTTTTTTTTTTTTTTT
# Assays:
# Settings in all cases: protein: recombinant; tags: none (untagged); chain copies: 4; label: 5' 32P
# KpSSBnStSSBc [1] = biological target: T1, KpSSBnStSSBc (Klebsiella pneumoniae subsp. pneumoniae …, UniProt A6TGW7 1-91+P0A2F6:92-176, internal_change); assay: EMSA; monomer conc.; 1 complex; 20 mM Tris-HCl pH 8.0, 100 mM NaCl, 25°C 30 min, 1.7 nM DNA, protein 0-5000 nM; native 8% PAGE in TBE at 4°C
# KpSSBnPaSSBc [2] = biological target: T2, KpSSBnPaSSBc (Klebsiella pneumoniae subsp. pneumoniae …, UniProt A6TGW7 1-91+P40947:91-165, internal_change); assay: EMSA; no complex observed up to 5000 nM; 20 mM Tris-HCl pH 8.0, 100 mM NaCl, 25°C 30 min, 1.7 nM DNA, protein 0-5000 nM; native 8% PAGE in TBE at 4°C
# KpSSBnPaSSBc [3] = biological target: T2, KpSSBnPaSSBc; assay: EMSA; monomer conc.; 1 complex; 20 mM Tris-HCl pH 8.0, 100 mM NaCl, 25°C 30 min, 1.7 nM DNA, protein 0-5000 nM; native 8% PAGE in TBE at 4°C
# KpSSBnPaSSBc [4] = biological target: T2, KpSSBnPaSSBc; assay: EMSA; monomer conc.; 2 complexes; 20 mM Tris-HCl pH 8.0, 100 mM NaCl, 25°C 30 min, 1.7 nM DNA, protein 0-5000 nM; native 8% PAGE in TBE at 4°C
# KpSSBnStSSBc [5] = biological target: T1, KpSSBnStSSBc; assay: as above
Binder,apparent K (half saturation) (KpSSBnStSSBc [1]) [nM],apparent K (half saturation) (KpSSBnPaSSBc [3]) [nM],other results
B1,260 ± 60,–,–
B2,110 ± 20,–,binding result (KpSSBnPaSSBc [2]): no binding
B3,120 ± 20,220 ± 30,–
B4,–,–,apparent K (half saturation) (KpSSBnPaSSBc [4]): 230 ± 30 nM
B5,–,–,apparent K (half saturation) (KpSSBnStSSBc [5]): 160 ± 20 nM
B6,–,390 ± 60,–
B7,–,230 ± 30,–
